From article PMC9930174 (2022)
One block for each binder: values may come before it.

Columns and labels:
[1] = target: T1, α-myosin (MYH6) peptide on HLA-A*03:01 (human); assay: multimer staining
T1 peptide: RINATLETK

[2] = target: T2, α-myosin (MYH6) peptide on HLA-A*24:02 (human); assay: multimer staining
T2 peptide: RINATLETK

[3] = target: T3, α-myosin (MYH6) peptide on H-2Kb (mouse); assay: activation reporter or marker
T3 peptide: VQQVYYSI

[4] = target: T4, α-myosin (MYH6) peptide on H-2Kb (mouse); assay: activation reporter or marker
T4 peptide: VIQYFASI

binding result [1]: recognises | binding result [2]: no recognition
B1: TCR-Pt1 (TCR)
alpha TRAV19 TRAJ32 CDR3: CALSDRYGGATNKLIF
beta TRBV9 TRBJ2-6 CDR3: CASSPYQSSGANVLTF

binding result [3]: recognises
B2: TCR-C (TCR)
alpha TRAV6D-6 TRAJ39 CDR3: CALGDRNNAGAKLTF
beta TRBV12-2 TRBJ2-5 CDR3: CASSLGGTVQDTQYF

binding result [4]: recognises
B3: TCR-B (TCR)
alpha TRAV13-1 TRAJ22 CDR3: CALERASGSWQLIF
beta TRBV15 TRBJ2-7 CDR3: CASSLRRGEQYF
